# Reference: patent publication US7893027B2, “Treatment of ocular wounds and ulcers” (The Board of Regents of the University of Oklahoma, priority 2002, dated 2011)
# B1: CAP37: Cationic Antimicrobial Protein of Mr 37 kDa; recombinant protein from human 293 cells, identical to native PMN-derived CAP37 (SEQ ID NO:1) (protein, listed as Homo sapiens)
# chain: IVGGRKARPRQFPFLASIQNQGRHFCGGALIHARFVMTAASCFQSQNPGVSTVVLGAYDLRRRERQSRQTFSISSMSENGYDPQQNLNDLMLLQLDREANLTSSVTILPLPLQNATVEAGTRCQVAGWGSQRSGGRLSRFPRFVNVTVTPEDQCRPNNVCTGVLTRRGGICNGDGGTPLVCEGLAHGVASFSLGPCGRGPDFFTRVALFRDWIDGVLNNPGP
# Key:
# [1] = tested on: human corneal epithelial cells (HCEC); test: CyQUANT cell proliferation assay; format: cell-based; details: for Increase in cell numbers: 72 hr post treatment
# Description: Human corneal epithelial cells were seeded onto 48 well tissue culture plates (7.5×10^3 cells/well, FALCON, Franklin Lakes, N.J.) and cultured as described above.
# Cultures were changed to growth factor-free basic medium overnight and treated with various concentrations of CAP37 (0-2000 ng/ml) for 48-72 hrs. Recombinant human Epidermal Growth Factor (EGF 50 ng/ml, BECTON DICKINSON, Bedford, Mass.) and recombinant human Hepatocyte Growth Factor/Scatter Factor (HGF/SF 20 ng/ml, BECTON DICKINSON) were used as positive controls and growth factor-free basic medium as negative control. The medium was aspirated and new medium with CAP37 or growth factors were added to the cultures every 24 hr. The CyQUANT Cell Proliferation Assay Kit (MOLECULAR PROBES, Eugene, Oreg.) was used to quantify cell proliferation exactly according to the manufacturer's specifications. Briefly, cells were frozen, thawed, and lysed with the addition of the lysis buffer containing the green fluorescent dye, CyQUANT GR which binds to nucleic acids and the fluorescence levels read on fluorescent micro plate reader (fmax MOLECULAR DEVICES, Sunnyvale, Calif.) with filters for 485 nm excitation and 538 nm emission.
# [2] = tested on: αv β 3 (CD51/CD61); test: Flow cytometry of integrin expression on HCEC; format: cell-based, human
# Description: (§1) Flow cytometry was used to assess the upregulation of PECAM-1 (CD31), and the integrin molecules β1 (CD29), β2 (CD18), β3 (CD61), β4 (CD104), α1 (CD49a), α2 (CD49b), α3 (CD49c), α4 (CD 49d), and αv (CD51). Human corneal epithelial cells were cultured as above and treated with CAP37 (0-2000 ng/ml) for 0-72 hr. A corresponding culture was left untreated at each time point. Following treatment with CAP37, cells were detached with 0.25% trypsin in 1 mM EDTA (pH 7.4, FISHER SCIENTIFIC, Pittsburgh, Pa.), washed twice in PBS and fixed with 0.125% paraformaldehyde (J.T. BAKER, Phillipsburg, N.J.) overnight at 4° C. The cells were washed in PBS and then incubated in 0.5% normal goat serum and 0.5% bovine serum albumin (BSA) in PBS for 30 min to block non-specific binding sites. Cells were incubated in the primary antibody (at concentrations described below) at 4° C. for 1 hr followed by the secondary antibody (FITC-goat anti-mouse IgG, PHARMINGEN, San Diego, Calif.) at 0.5 μg/10^6 cells and incubated at 4° C. for 30 min. The isotype control for these studies was FITC-labeled mouse isotype IgG1 (PHARMINGEN). The cells were analyzed by flow cytometry (FACS Calibur, BECTON DICKINSON, San Jose, Calif.). At least ten thousand cells were analyzed for each sample.
# (§2) The primary antibodies and the concentrations used in the flow cytometry experiments are as follows: mouse anti-human PECAM-1 (CD31) monoclonal antibody clone HEC7 (0.5 μg/10^6 cells, ENDOGEN, Woburn, Mass.), mouse anti-human very late antigen 1α (VLA-1α, or CD49a) monoclonal antibody clone SR84 (0.5 μg/10^6 cells, PHARMINGEN), mouse anti-human VLA-α2 (CD49b) monoclonal antibody clone AK-7 (0.125 μg/10^6 cells, PHARMINGEN), mouse anti-human α3 (CD49c) monoclonal antibody clone C3II.1 (0.125 μg/10^6 cells, PHARMINGEN), mouse anti-human VLA-4 (α4) monoclonal antibody clone 2B4 (1 μg/10^6 cells, R & D systems, Minneapolis, Minn.), mouse anti human α5 (CD49e) monoclonal antibody clone VC5 (0.125 μg/10^6 cells, PHARMINGEN), mouse anti-human β1 (CD29) monoclonal antibody MAR4 (2 μg/10^6 cells, PHARMINGEN), mouse anti human β2 integrin (CD18) monoclonal antibody clone 6.7 (0.5 μg/10^6 cells, PHARMINGEN), mouse anti human αvβ3 (CD51/CD61) monoclonal antibody clone 23C6 (0.5 μg/10^6 cells, PHARMINGEN), and mouse anti human integrin β4 (CD104) monoclonal antibody clone 450-11A (1.0 μg/10^6 cells, PHARMINGEN). A purified mouse IgG1 κ monoclonal immunoglobulin isotype standard (clone MOPC-31C) was used as the isotype matched control in the flow cytometry experiments.
# [3] = tested on: β 4 (CD104); test: Flow cytometry of integrin expression on HCEC; format: cell-based, human
# Description: as §1, §2
# [4] = tested on: α1 (CD49a; VLA-α1); test: Flow cytometry of integrin expression on HCEC; format: cell-based, human
# Description: as §1, §2
# [5] = tested on: α2 (CD49b; VLA-α2); test: Flow cytometry of integrin expression on HCEC; format: cell-based, human
# Description: as §1, §2
# [6] = tested on: α3 (CD49c); test: Flow cytometry of integrin expression on HCEC; format: cell-based, human
# Description: as §1, §2
# [7] = tested on: β 1 (CD29); test: Flow cytometry of integrin expression on HCEC; format: cell-based, human
# Description: as §1, §2
# [8] = tested on: α4 (CD49d); test: Flow cytometry of integrin expression on HCEC; format: cell-based, human
# Description: as §1, §2
# [9] = tested on: β 2 (CD18); test: Flow cytometry of integrin expression on HCEC; format: cell-based, human
# Description: as §1, §2
molecule,measurement,setting,value
B1,Levels of proliferation relative to positive controls,"[1]; 1000-2000 ng/ml, 48 hours","comparable to those obtained with the two positive controls, EGF and HGF"
same,Proliferation of HCEC,"[1]; 48 hours post treatment, versus culture medium alone",significant increase in proliferation over basal levels
same,Increase in cell numbers,[1]; 1000 ng/ml,approximately two
same,Increase in cell numbers,[1]; 2000 ng/ml,three
same,Effect of CAP37 on integrin αv β 3 (CD51/CD61),[2],Low constitutive expression - no upregulation
same,Effect of CAP37 on integrin β 4 (CD104),[3],Constitutive expression - no upregulation
same,Effect of CAP37 on integrin α1 (CD49a; VLA-α1),[4],Constitutive expression - no upregulation
same,Effect of CAP37 on integrin α2 (CD49b; VLA-α2),[5],Constitutive expression - no upregulation
same,CD49c protein levels,[6]; 48 and 72 hr,returned back to constitutive levels
same,Level of CD49c protein expression,[6]; 4 hr to 24 hr,sustained through 24 hr
same,Effect of CAP37 on integrin α3 (CD49c),"[6]; HCEC, flow cytometry",High constitutive expression - significant
same,Time of initial upregulation of CD49c (α3),"[6]; HCEC, flow cytometry",4 h
same,Upregulation of CD29 (β1),[7]; 6 hr,clearly significant
same,Upregulation of CD29 (β1),[7]; 72 hr,still significantly elevated above background constitutive levels
same,Effect of CAP37 on integrin β 1 (CD29),"[7]; HCEC, flow cytometry",Constitutive expression - significant upregulation
same,Effect of CAP37 on integrin α4 (CD49d),[8],Low constitutive expression - no upregulation
same,Effect of CAP37 on integrin β 2 (CD18),[9],No constitutive expression - no upregulation
